From publication PMC4928677

Molecular target: GST-Cks2 (Xenopus laevis Cks2α, wild type) (Xenopus laevis) (UniProt Q91879)
Assay: pull-down

UniProt Q91879, sequence (Q91879 whole entry): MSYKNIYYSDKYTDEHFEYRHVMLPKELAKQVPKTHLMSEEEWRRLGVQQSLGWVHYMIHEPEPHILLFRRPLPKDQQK

## Hyperphosphorylated Wee1A (Flag-Wee1A-WT phosphorylated in vitro by cyclin B1-Cdk1) (from UniProt Q8AYK6 1-571) (natural protein)
  EC50: 120 nM

## Hypophosphorylated Wee1A (Flag-Wee1A-WT incubated with cyclin B1-Cdk1 without ATP) (from UniProt Q8AYK6 1-571) (natural protein)
  EC50: 526 nM
